This note sets out measurements from publication doi:10.1101/738179, “Rad51 Interaction Analysis Reveals a Functional Interplay Among Recombination Auxiliary Factors” (bioRxiv, 2019).

The labels stand for the following.
B1: Swi5-Sfr1 (wild type, full-length Sfr1) (complex, S. pombe)
chain 1: MEKSQLESRVHLLEQQKEQLESSLQDALAKLKNRDAKQTVQKHIDLLHTYNEIRDIALGMIGKVAEHEKCTSVELFDRFGVNGSE
chain 2: MSQTINSELNENATSQCKEDLKVSLSESDLRDSQGQLGIENPPKCNNSGNHSDNLGFIEQSETVHPENEKALTPDLRDTKIHTSLPITTPFSKKRAREAKNILLKPFKSPLRQTASPQVADTNLKPSLAVTNLNSDETNTSSEPVTSPLRTTPNSIKRQKRLFKSPISNCLNPKSDPEITQLLSRRLKLEKEVRNLQEQLITAETARKVEAKNEDKDLQTLIQKWKNAAQQAAEVLFKPMAERIRLAGGVTQSFRIEEGENKGQIQEVRTEFTMSMFLNQFGVPVHLMSFDEENGDWKS
B2: Rad51 (natural protein, S. pombe, UniProt P36601 1-365, looked up)
chain: MADTEVEMQVSAADTNNNENGQAQSNYEYDVNVQDEEDEAAAGPMPLQMLEGNGITASDIKKIHEAGYYTVESIAYTPKRQLLLIKGISEAKADKLLGEASKLVPMGFTTATEYHIRRSELITITTGSKQLDTLLQGGVETGSITELFGEFRTGKSQICHTLAVTCQLPIDMGGGEGKCLYIDTEGTFRPVRLLAVADRYGLNGEEVLDNVAYARAYNADHQLELLQQAANMMSESRFSLLVVDSCTALYRTDFSGRGELSARQMHLARFMRTLQRLADEFGIAVVITNQVVAQVDGISFNPDPKKPIGGNILAHSSTTRLSLRKGRGEQRICKIYDSPCLPESEAIFAINSDGVGDPKEIIAPV
notes: Rad51, RecA-family recombinase of S. pombe; Covalently attached to Affi-gel 15 in the pull-down; Multimer in solution by SEC; also called Affi-Rad51

The experiment “Rad51” concerns the target B2. Nature of the experiment: cell-based or functional assay.
In experiment [1] the target is B1. Nature of the experiment: pull-down; Rad51 covalently attached to Affi-gel 15 (2 µg protein/µL gel); Swi5-Sfr1 variant in Affi-gel buffer (25 mM HEPES-KOH pH 7.5, 150 mM NaCl, 3.5 mM MgCl2, 0.5 mM DTT, 0.05 µg/µL BSA, 10% glycerol, 0.05% igepal CA-630); 30 °C 30 min; Sfr1 detected by immunoblot; Affi-BSA as control. Particulars: both partners purified. In general terms: Immunoblotting shows a protein as a band on a membrane.

For the molecule B1, the “Rad51-dependent ATP turnover, fold increase at a Swi5-Sfr1:Rad51 ratio of 1:20 (0.25 µM Swi5-Sfr1, 5 µM Rad51)” value with Rad51 worked out at 1.85 fold.

Turning to B2, the binding result in experiment [1] is recorded as “binds”.
